From patent US20130078234A1 (Daiichi Sankyo, published 2013) come the findings set out here.

T1: extracellular domain polypeptide of a recombinant B7-H3 variant 2 antigen (R&D Systems, Inc., #2318-B3-050/CF) (human, UniProt Q5ZPR3 29-466)
T1 construct: Bought recombinant protein; also called recombinant B7-H3 antigen; B7-H3 antigen
T1 sequence: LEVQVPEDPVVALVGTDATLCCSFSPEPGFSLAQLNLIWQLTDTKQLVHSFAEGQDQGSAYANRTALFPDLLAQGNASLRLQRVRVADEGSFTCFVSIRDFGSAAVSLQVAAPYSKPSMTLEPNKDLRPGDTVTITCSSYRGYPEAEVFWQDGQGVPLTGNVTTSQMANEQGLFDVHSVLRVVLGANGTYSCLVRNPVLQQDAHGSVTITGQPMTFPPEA

B1: humanized M30 antibody M30-H1-L1 (antibody, human IgG1, kappa, V domains shown)
VH: QVQLVQSGAEVKKPGSSVKVSCKASGYTFTNYVMHWVRQAPGQGLEWMGYINPYNDDVKYNEKFKGRVTITADESTSTAYMELSSLRSEDTAVYYCARWGYYGSPLYYFDYWGQGTLVTVSS
VL: EIVLTQSPATLSLSPGERATLSCRASSRLIYMHWYQQKPGQAPRLLIYATSNLASGIPARFSGSGSGTDFTLTISRLEPEDFAVYYCQQWNSNPPTFGQGTKVEIKR
notes: Human IgG1/kappa
B2: humanized M30 antibody M30-H1-L5 (antibody, human IgG1, kappa, V domains shown)
VH: QVQLVQSGAEVKKPGSSVKVSCKASGYTFTNYVMHWVRQAPGQGLEWMGYINPYNDDVKYNEKFKGRVTITADESTSTAYMELSSLRSEDTAVYYCARWGYYGSPLYYFDYWGQGTLVTVSS
VL: QIVLSQSPATLSLSPGERATLTCRASSRLIYMHWYQQKPGSAPKPWIYATSNLASGIPARFSGSGSGTSYTLTISRLEPEDFAVYYCQQWNSNPPTFGQGTKVEIKR
notes: Human IgG1/kappa
B3: humanized M30 antibody M30-H4-L1 (antibody, human IgG1, kappa, V domains shown)
VH: EVQLVQSGAEVKKPGSSVKVSCKASGYTFTNYVMHWVKQAPGQGLEWIGYINPYNDDVKYNEKFKGKATQTSDKSTSTAYMELSSLRSEDTAVYYCARWGYYGSPLYYFDYWGQGTLVTVSS
VL: EIVLTQSPATLSLSPGERATLSCRASSRLIYMHWYQQKPGQAPRLLIYATSNLASGIPARFSGSGSGTDFTLTISRLEPEDFAVYYCQQWNSNPPTFGQGTKVEIKR
notes: Human IgG1/kappa
B4: humanized M30 antibody M30-H1-L3 (antibody, human IgG1, kappa, V domains shown)
VH: QVQLVQSGAEVKKPGSSVKVSCKASGYTFTNYVMHWVRQAPGQGLEWMGYINPYNDDVKYNEKFKGRVTITADESTSTAYMELSSLRSEDTAVYYCARWGYYGSPLYYFDYWGQGTLVTVSS
VL: QIVLSQSPATLSLSPGERATLTCRASSRLIYMHWYQQKPGSAPKLWIYATSNLASGIPARFSGSGSGTSYTLTISRLEPEDFAVYYCQQWNSNPPTFGQGTKVEIKR
notes: Human IgG1/kappa
B5: humanized M30 antibody M30-H1-L7 (antibody, human IgG1, kappa, V domains shown)
VH: QVQLVQSGAEVKKPGSSVKVSCKASGYTFTNYVMHWVRQAPGQGLEWMGYINPYNDDVKYNEKFKGRVTITADESTSTAYMELSSLRSEDTAVYYCARWGYYGSPLYYFDYWGQGTLVTVSS
VL: EIVLTQSPATLSLSPGERATLSCRASSRLIYMHWYQQKPGQAPRPLIYATSNLASGIPARFSGSGSGTDYTLTISRLEPEDFAVYYCQQWNSNPPTFGQGTKVEIKR
notes: Human IgG1/kappa
B6: humanized M30 antibody M30-H4-L2 (antibody, human IgG1, kappa, V domains shown)
VH: EVQLVQSGAEVKKPGSSVKVSCKASGYTFTNYVMHWVKQAPGQGLEWIGYINPYNDDVKYNEKFKGKATQTSDKSTSTAYMELSSLRSEDTAVYYCARWGYYGSPLYYFDYWGQGTLVTVSS
VL: EIVLTQSPATLSLSPGERATLSCRASSRLIYMHWYQQKPGQAPRLWIYATSNLASGIPARFSGSGSGTDYTLTISRLEPEDFAVYYCQQWNSNPPTFGQGTKVEIKR
notes: Human IgG1/kappa
B7: humanized M30 antibody M30-H1-L6 (antibody, human IgG1, kappa, V domains shown)
VH: QVQLVQSGAEVKKPGSSVKVSCKASGYTFTNYVMHWVRQAPGQGLEWMGYINPYNDDVKYNEKFKGRVTITADESTSTAYMELSSLRSEDTAVYYCARWGYYGSPLYYFDYWGQGTLVTVSS
VL: EIVLTQSPATLSLSPGERATLSCRASSRLIYMHWYQQKPGQAPRPLIYATSNLASGIPARFSGSGSGTDFTLTISRLEPEDFAVYYCQQWNSNPPTFGQGTKVEIKR
notes: Human IgG1/kappa
B8: humanized M30 antibody M30-H1-L2 (antibody, human IgG1, kappa, V domains shown)
VH: QVQLVQSGAEVKKPGSSVKVSCKASGYTFTNYVMHWVRQAPGQGLEWMGYINPYNDDVKYNEKFKGRVTITADESTSTAYMELSSLRSEDTAVYYCARWGYYGSPLYYFDYWGQGTLVTVSS
VL: EIVLTQSPATLSLSPGERATLSCRASSRLIYMHWYQQKPGQAPRLWIYATSNLASGIPARFSGSGSGTDYTLTISRLEPEDFAVYYCQQWNSNPPTFGQGTKVEIKR
notes: Human IgG1/kappa

A word on the Kd: it is the equilibrium constant for the complex coming apart.

The assay has as its target T1, extracellular domain polypeptide of a …. Kind of assay: SPR (Biacore), antibody captured on anti-human IgG, B7-H3 variant 2 extracellular domain as analyte. The procedure:
The binding property of the humanized M30 antibody to human B7-H3 which is an antigen was measured by a surface plasmon resonance (SPR) device (Biacore, Inc.). According to a common procedure, an anti-human IgG antibody was immobilized on a sensor chip, and then, each of the purified samples of the humanized M30 antibodies obtained in the above 10)-4 was bound thereto. Thereafter, an extracellular domain polypeptide of the B7-H3 variant 2 antigen (manufactured by R&D Systems, Inc., #2318-B3-050/CF) was added thereto at different concentrations, and the amount of the antigen bound to the antibody in a running buffer (phosphate buffer, 0.05% SP20) was measured over time. The measured amount was analyzed with a dedicated software (BIAevaluation) and a dissociation constant (Kd [M]) was calculated. The measurement was performed using the cM30 antibody as a positive control for each measurement operation.
On the technique in general: SPR reads the build-up and loss of mass on a sensor chip optically.
Consider B1, for which the equilibrium dissociation constant (Kd) was determined as 87 nM. As to B2, the Kd was determined as 1.9 nM. For B3, the Kd is 130 nM. As to B4, the dissociation constant Kd is 100 nM.

As to B5, the equilibrium dissociation constant (Kd) is 2.7 nM. As for B6, the dissociation constant (Kd) came to 140 nM. With B7, the Kd turned out to be 3.4 nM. With B8 the figure was 100 nM.
